Assays:
Experiment in all cases: BLI
[1] = target: spike RBD of the Alpha variant (B.1.1.7) (SARS-CoV-2, Alpha (B.1.1.7), N501Y)
[2] = target: spike RBD of the Lambda variant (SARS-CoV-2, Lambda (C.37), strain)
[3] = target: spike RBD of the Epsilon variant (SARS-CoV-2, Epsilon (B.1.429), strain)

B1: mNb6(WT) (VHH)
VHH: QVQLVESGGGLVQAGGSLRLSCAASGYIFGRNAMGWYRQAPGKERELVAGITRRGSITYYADSVKGRFTISRDNAKNTVYLQMNSLKPEDTAVYYCAADPASPAYGDYWGQGTQVTVSS
B1 gave a Kd [1] of 1.5 nM, a Kd [2] of 2.86 ± 0.77 nM and a Kd [3] of 1.32 ± 0.11 nM.

From paper PMC9288967 (Chem, 2022)
